Assay results: patent US20240294635A1 (CHIA TAI TIANQING PHARMACEUTICAL GROUP, published 2024)

What was measured:
CD47 on Jurkat cells = biological target: T1, CD47 on Jurkat cells (UniProt Q08722 19-323, limits assumed); test: flow cytometry on Jurkat cells, competition with Human-SIRPα-mFc
T1 construct: whole, on cells; Jurkat is a human T cell line
Protocol: The plate was incubated at room temperature for 1 h. After the plate was washed twice with PBS buffer, 100 μL of anti-CD47 chimeric antibodies (Table 7) was added to each well. 4-fold dilution was performed with PBS buffer from a starting concentration of 20 μg/mL, with 8 gradients obtained. The plate was incubated at room temperature for 1-2 h. […] The plate was incubated at room temperature for 1 h and washed 3 times with PBS buffer.

[1] = biological target: T2, human CD47 protein, His Tag (ACRObiosystems, Cat. No. CD7-H5227) (human, UniProt Q08722 19-139); test: Biacore SPR, 25 C, antibody captured on CM5 chip; Biacore at 25 C; antibody captured on the chip, soluble CD47-His as analyte
T2 construct: bought reagent; also called CD47-His; hCD47-His Tag; not shown: His tag

[2] = biological target: T3, cynomolgus/rhesus macaque CD47 protein, His Tag (ACRObiosystems, Cat. No. CD7-C52H1) (cynomolgus monkey (cynomolgus/rhesus …, UniProt A0A2K5X523 19-141)); test: Biacore SPR, 25 C, antibody captured on CM5 chip
T3 construct: bought reagent; also called Cynomolgus monkey CD47 protein

[3] = biological target: T4, CD47 on the red cell surface (Homo sapiens (Human), UniProt Q08722 19-323); test: flow cytometry on fixed red cells, antibody 10 µg/mL
Protocol: (§1) Anticoagulated blood was collected and well mixed with an equal amount of normal saline. The mixture was centrifuged at 2000 rpm/min for 5 min, and the supernatant was removed. […] In the first two washings, the mixture was centrifuged at 2000 rpm/min for 5 min, and in the last washing, the mixture was centrifuged at 2000 rpm/min for 10 min, and the supernatant was removed.

CD47 on HL60 cells = CD47 on HL60 cells (UniProt Q08722 19-323, limits assumed); test: cell-based or functional assay
[4] = biological target: T4, CD47 on the red cell surface; test: flow cytometry on fixed red cells, antibody 1 µg/mL
Protocol: as §1

[5] = biological target: T2, human CD47 protein, His Tag …; test: ELISA, CD47-His coated, competition with Human-SIRPα-mFc; Blocking ELISA; CD47-His coated on plate, SIRPα-mFc bound first, antibody from 20 µg/mL, mouse Fc detected
Protocol: The plate was let stand at 2-8° C. overnight. The wells were aspirated to remove the coating buffer and blocked with 100 μL/well of a blocking solution (PBS with 1% (w/v) bovine serum albumin (BSA, Sigma, Cat. No. B2064-100G)) by incubation at 37° C. for 1 h. The 96-well plate was washed with a washing buffer (PBS with 0.01% (w/v) Tween 20 (Sigma, Cat. No. P9416-100ML)). […] After the 96-well plate was washed with PBS washing buffer, anti-CD47 chimeric antibodies or anti-CD47 humanized antibodies (see Table 8 for chimeric antibodies, and see Table 9 for humanized antibodies) were added. 4-fold dilution was performed with PBS buffer from a starting concentration of 20 μg/mL, with 8 gradients obtained. The plate was incubated at room temperature for 1.5 h. […] After the 96-well plate was washed with PBS buffer, 100 μL/well of a substrate solution TMB (TIANGEN, Cat. No. PA107-01) was added, and the plate was incubated at room temperature for color development for 10 min. 100 μL/well of 1 M H₂SO₄ was added to stop the reaction. Colorimetric signals were generated and read at 450 nm using a multifunctional microplate reader (manufacturer: PerkinElmer; model: EnVision). Data were analyzed using GraphPad Prism5, and EC₅₀ was calculated.

T3 sequence (A0A2K5X523 entry or part of it limits assumed): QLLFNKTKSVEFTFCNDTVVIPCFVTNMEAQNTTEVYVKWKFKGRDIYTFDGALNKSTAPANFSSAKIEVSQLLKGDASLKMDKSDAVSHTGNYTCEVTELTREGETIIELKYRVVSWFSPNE

B1: Xi2H8 (antibody, human IgG4 S228P, kappa, V domains shown)
VH: QVQLKESGPGLVAPSQSLSITCTVSGFSLTNYGVHWVRQPPGKGLEWLGIIWAGGSTNYNSALMSRLSISKDNSKSQVFLKMNSLQTDDTAMYYCARDDYASMDYWGQGTSVTVSS
VL: DAFMTQTPLSLPVSLGDQASISCRSSQSLVHSNGNTYLHWYLQKPGQSPKLLIYKVSNRFSGVPDRFSGSGSGTDFTLKISRVEAEDLGVYFCSQSTHVPYTLGGGTKLEIKR
notes: mouse variable regions on human IgG4 (EU S228P) and human kappa constant regions; also called chimeric 2H8 antibody
IC50 (CD47 on Jurkat cells): 27 µg/mL | Kd [1]: 0.35 nM | Kd [2]: 1.25 nM | MFI [3]: 5300 MFI | rate of phagocytosis, antibody 1 µg/mL (CD47 on HL60 cells): 7.1% | rate of phagocytosis, antibody 10 µg/mL (CD47 on HL60 cells): 3.5% | MFI [4]: 952 MFI | IC50 [5]: 0.00468 µg/mL
